The source of these data is IntAct's records for PubMed 11880648.

B1: RNA polymerase sigma factor SigA (Mycobacterium tuberculosis (strain ATCC 25618 / P9WGI1 (parent)
chain: MAATKASTATDEPVKRTATKSPAASASGAKTGAKRTAAKSASGSPPAKRATKPAARSVKPASAPQDTTTSTIPKRKTRAAAKSAAAKAPSARGHATKPRAPKDAQHEAATDPEDALDSVEELDAEPDLDVEPGEDLDLDAADLNLDDLEDDVAPDADDDLDSGDDEDHEDLEAEAAVAPGQTADDDEEIAEPTEKDKASGDFVWDEDESEALRQARKDAELTASADSVRAYLKQIGKVALLNAEEEVELAKRIEAGLYATQLMTELSERGEKLPAAQRRDMMWICRDGDRAKNHLLEANLRLVVSLAKRYTGRGMAFLDLIQEGNLGLIRAVEKFDYTKGYKFSTYATWWIRQAITRAMADQARTIRIPVHMVEVINKLGRIQRELLQDLGREPTPEELAKEMDITPEKVLEIQQYAREPISLDQTIGDEGDSQLGDFIEDSEAVVAVDAVSFTLLQDQLQSVLDTLSEREAGVVRLRFGLTDGQPRTLDEIGQVYGVTRERIRQIESKTMSKLRHPSRSQVLRDYLD
partner: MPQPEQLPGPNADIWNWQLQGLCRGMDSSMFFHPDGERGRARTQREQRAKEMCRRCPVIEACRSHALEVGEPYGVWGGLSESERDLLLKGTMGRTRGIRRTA

In the test the parent is B1. To be noted: with whib3_myctu whiB3, P9WF41.
For the variant R515H, the “effect of a mutation on the interaction” value is given as “disrupting interaction strength”.
